Assay [1] has as its target T1, Human C3dg-biotin (human, UniProt P01024 955-1303, biotin (site not stated) in the SPR experiments).
T1 construct: domain: C3dg; In the ELISA it is purified C3dg coated on wells; also called C3dg ligand; CR2 ligand C3dg
Description: ELISA, wells coated with purified C3dg, anti-complement inhibitor antibodies. As for the experimental part:
ELISA experiments were conducted as previously described. In ELISA experiments, CR2-containing constructs were added to wells coated with purified C3dg. Binding was detected by means of anti-complement inhibitor antibodies and enzyme-conjugated secondary antibodies. All CR2 containing constructs, but not sCD59 and sDAF bound to C3d.
On the technique in general: In an ELISA, binding on a coated surface is turned into a signal by an enzyme label.

Assay [2] addresses T1, Human C3dg-biotin. The experiment in a line: SPR, C3dg-biotin captured on streptavidin chip. As for the experimental part:
(§1) Kinetic analysis of the interaction of the CR2 fusion proteins with C3dg-biotin was performed using surface plasmon resonance (SPR) measurements made on a BIAcore 3000 instrument. Human C3dg-biotin, prepared as described (36), was bound to the surface of BIAcore streptavidin (SA) sensor chips by injecting C3dg-biotin at 50 μg/ml over the surface of one flow cell of the chip at 2 μl/minute for 20 minutes. The flow buffer was 0.5×PBS+0.05% Tween 20. The SPR signal from captured C3dg generated BIAcore response units ranging from 250-500. Control streptavidin-coated flow cells were run in the absence of protein. Binding was evaluated over a range of CR2 fusion protein concentrations (15.6-500 nM) in 0.5×PBS, 0.05% Tween 20 at 25° C. at a flow rate of 25 μl/minute. CR2 fusion protein samples were injected in 50 μl aliquots using the kinject command. Association of the fusion proteins with the ligand was monitored for 120 seconds, after which the complex was allowed to dissociate in the presence of buffer only for an additional 120 seconds. […] Binding data were fitted to a 1:1 Langmuir binding model using BIAevaluation Version 3.1 software (BIAcore) and evaluated for best fit by low residual and χ² values. […]
(§2) A comparison of the affinity of the different recombinant fusion proteins for the CR2 ligand C3dg was determined by surface plasmon resonance measurements. […]
On the technique in general: Surface plasmon resonance follows binding to a sensor surface in real time, without labels.

In assay [3] the target is T1, Human C3dg-biotin. Description: SPR, biotinylated C3dg on streptavidin BIAcore chip. As for the experimental part: as §1, §2
The target of assay [4] is T1, Human C3dg-biotin. Description: SPR (referred to). The method, then:
as §1, §2

T1 sequence (P01024 955-1303 limits assumed): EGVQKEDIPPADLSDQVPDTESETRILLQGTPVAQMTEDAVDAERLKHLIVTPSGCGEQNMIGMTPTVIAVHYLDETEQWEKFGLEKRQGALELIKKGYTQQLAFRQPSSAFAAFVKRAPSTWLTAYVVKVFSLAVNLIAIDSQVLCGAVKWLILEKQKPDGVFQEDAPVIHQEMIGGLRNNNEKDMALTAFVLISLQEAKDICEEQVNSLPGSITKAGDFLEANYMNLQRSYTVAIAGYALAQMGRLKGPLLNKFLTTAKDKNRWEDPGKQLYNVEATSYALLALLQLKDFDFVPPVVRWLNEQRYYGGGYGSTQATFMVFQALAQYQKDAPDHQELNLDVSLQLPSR

B1: DAF-CR2 (other)
chain: DCGLPPDVPNAQPALEGRTSFPEDTVITYKCEESFVKIPGEKDSVICLKGSQWSDIEEFCNRSCEVPTRLNSASLKQPYITQNYFPVGTVVEYECRPGYRREPSLSPKLTCLQNLKWSTAVEFCKKKSCPNPGEIRNGQIDVPGGILFGATISFSCNTGYKLFGSTSSFCLISGSSVQWSDPLPECREIYCPAPPQIDNGIIQGERDHYGYRQSVTYACNKGFTMIGEHSIYCTVNNDEGEWSGPPPECRSSGGGGSGGGGSGGGGSISCGSPPPILNGRISYYSTPIAVGTVIRYSCSGTFRLIGEKSLLCITKDKVDGTWDKPAPKCEYFNKYSSCPEPIVPGGYKIRGSTPYRHGDSVTFACKTNFSMNGNKSVWCQANNMWGPTRLPTCVSVFPLECPALPMIHNGHHTSENVGSIAPGLSVTYSCESGYLLVGEKIINCLSSGKWSAVPPTCEEARCKSLGRFPNGKVKEPPILRVGVTANFFCDEGYRLQGPPSSRCVIAGQGVAWTKMPVC
notes: also called human DAF-CR2; fusion protein with CR2 at the C-terminus
Regarding B1, the binding result in assay [1] was “binds”.

B2: soluble DAF (other, human, UniProt P08174 35-283, looked up)
chain: DCGLPPDVPNAQPALEGRTSFPEDTVITYKCEESFVKIPGEKDSVICLKGSQWSDIEEFCNRSCEVPTRLNSASLKQPYITQNYFPVGTVVEYECRPGYRREPSLSPKLTCLQNLKWSTAVEFCKKKSCPNPGEIRNGQIDVPGGILFGATISFSCNTGYKLFGSTSSFCLISGSSVQWSDPLPECREIYCPAPPQIDNGIIQGERDHYGYRQSVTYACNKGFTMIGEHSIYCTVNNDEGEWSGPPPEC
notes: range 1-249; also called sDAF; untargeted sDAF
B2: in assay [2], the binding result is “no binding”.

B3: soluble CD59 (other, human, UniProt P13987 26-102, looked up)
chain: LQCYNCPNPTADCKTAVNCSSDFDACLITKAGLQVYNKCWKFEHCNFNDVTTRLRENELTYYCCKKDLCNFNEQLEN
notes: also called sCD59; untargeted sCD59
As to B3, the binding result in assay [3] was “no binding”.

B4: CR2-CD59 (other)
chain: ISCGSPPPILNGRISYYSTPIAVGTVIRYSCSGTFRLIGEKSLLCITKDKVDGTWDKPAPKCEYFNKYSSCPEPIVPGGYKIRGSTPYRHGDSVTFACKTNFSMNGNKSVWCQANNMWGPTRLPTCVSVFPLECPALPMIHNGHHTSENVGSIAPGLSVTYSCESGYLLVGEKIINCLSSGKWSAVPPTCEEARCKSLGRFPNGKVKEPPILRVGVTANFFCDEGYRLQGPPSSRCVIAGQGVAWTKMPVCSGGGGSLQCYNCPNPTADCKTAVNCSSDFDACLITKAGLQVYNKCWKFEHCNFNDVTTRLRENELTYYCCKKDLCNFNEQLEN
notes: also called CR2-human CD59; fusion protein with CR2 at the N-terminus
On to B4, for which, in assay [4], the binding result is listed as “binds”.

These data come from US20080267980A1 (MUSC FOUNDATION FOR RESEARCH DEVELOPMENT, published 2008).
